{"source": "a protein production outcome set (Wang et al. 2014)", "test": "label from the status in PepcDB records", "data": [{"sequence": "AIAAQTERRDAPELPDFSLLKRLARDQLIFLLEQLPGKKDLFIDADLMSPLDRIANVTILKQHEVDKLYKVELKPIVSSSDQLCFLIRPRIQTVKWISDLVNSDKVAGRFRRYKIIFTPQKFYACETVLEEQGVYGDVTTDEWNFYILPLDDDILSLELPEFFRDNFLEGDQRWVTTGGGALHLLQSVYGSFSKVYGIGRCAKMVYESWRELMEEGEQRTRQPEFAKVFLIDRDVDFVTPLCSQVVYEGLVDDIFRIKCSSVEFGPDVTSSDKSIKVMLNSQDKVFNEIRNEHFSNVFGFLSQKAKNLQTAYDKRRGMDIQQMKAFVADELKGLKQEHRLLSLHIGASESIMKKKTKQDFQELLKTEHSLLEGFEIRECIAYIEEHINRQVSMIDSLRLLCLLSITENGLLSKDYRSLKAQYLQSYGIEHLLTFANLRQLGLLEEQQTGETLTVMESKVGKLVNDKTAGKLTDAFSSLAKKSNFRALSKRLALVPKSGEEYDLRVPRDMAYIFSGAYIPLSCKLIEQVLERDGWTGLEEVTRMLNGQDFAVTGGSSSSEARNKSNGQRIILVMFLGGCTYSEISALRFLGKERGCRFIVLTTAITNSGRLLEALLDKHV", "values": [{"measurement": "protein production", "value": "failed"}]}, {"sequence": "MQETDSGAGPRTLRRGLMVLAALRDQGPRGLSVTDIARQTGIQRPTIYRLLAALLDAGLVVPLQGTKKYRTQLAADADLAAPNPRVRQMLPVLRRLADRTGDAVFLVVRDGDDSVSLHREIGSYPVQILATYAGKRQPLGVGSGSMALLAALPDEVAHAIVQRNSGRLDEYGGMTPQEMHRLIENTRARGYSVVGNHAVRGALGVGCALLDAQGAPVLAVSVTAIIDRMPAQRQREIAGWIGAELARLAPKA", "values": [{"measurement": "protein production", "value": "failed"}]}, {"sequence": "MSPIARAALWMTGAIASFSAMAVAGRELSAVHDTFEIMMYRSFVGVLVVSLILSVTGTWHQVSTRALGLHALRNAVHFTGQNLWFFAVTVIPLAQVFALEFTQPLWVILLSPLLLGERMTRVRVAAAVIGFVGILIVARPGASSLNIGILTAALSAIFFAMTTISTKKLTRLASIGCIMFWLTVMQAVLGLVASGHDGQIALPTLGTAPYLVLVGLAGLLAHYCITNALAIAPATVVVPIDFARLPTIAVVGMLLYGEALDIWVLVGAAVIFAGNYLNILAETRNTAR", "values": [{"measurement": "protein production", "value": "failed"}]}, {"sequence": "MIITKNISLPELYQEWLDLKIMPSNRSDVTKKKYLSRKVTLEKLFGDKPISQIRPSEYQRIMNNYGQRVSRNFLGRLNTGVKQSLQMAIADKVMIEDFTQNVELFSTVKLEHHHHHH", "values": [{"measurement": "protein production", "value": "not failed"}]}, {"sequence": "MSFRKVEKKPTEMGRNMTHEKSDSDSDNEGAPMTVGGYTEFVARSDSDWDEPVYSGKARSNYNLTGTAKGTGPINSFSRKHFPNY", "values": [{"measurement": "protein production", "value": "failed"}]}, {"sequence": "MWKRMTAKAEGLYIADTKSFVTKQMDKLDFDYGGIPGDLHFGLTKKAGAREPMFSRGTEIFNRRQISIVSIEECNEIALKMGVPRILPEWLGANVAVSGMPDLTSLKEGSRIIFPSGAALLCEGENDPCIQPGEVIQSYYPDQPKLASAFVRHALGIRGIVCIVERPGAVYTGDEIEVHSYQRKVKRKAERV", "values": [{"measurement": "protein production", "value": "not failed"}]}, {"sequence": "MIKEFSDPLYGFVRVGEAGLRLIDSFPFQRLRYVKQLGLAYLVFPSAQHTRFEHSLGVYHITERICESLKVKEKELVKLAGLLHDLGHPPFSHTTEVLLPRERSHEDFTERVIKETEIYEILKQDYSHEDIERLVRITLGKPEDEEEKLLSEIITGEFGSDRMDYLRRDAYFCGVSYGFFDYDRLISTLRVYENKVVVDESGLRALENFLISRYFMYVQVYFHKVVRILSIHLVEFLKKLISQEDFTDINNFLRLNDAFVISELFKRKAFREDFERIFQRKHFKTLLSTENYEKFSETKERLLEKFPQEKVRFDEVEKEVYGGNIYVLSSEGLKKAHELSPLIASLKPIKLYRIYVDRQLWEKARSELKLS", "values": [{"measurement": "protein production", "value": "not failed"}]}, {"sequence": "MANSLRTLFSVSTHGVFLNKRSSYRVRKVFVGMPLRICSEIPRFVSVSCIRSDMCGIMMLGKDVHDLLETSSGGNVEKGFLRWRNGGGMYHRSALIDSSALVEFGAVVHQEAILGAEVHIGSNTVIGSSVKIGPSTKIGNCSIGDLCVIHNGVCIGQDGFGFYVDDNGNMVKKPQTLNVKIGNRVEIGANTCIDRGSWRDTVIGDDTKIDNLVQIGHNVIIGKCCLFCGQVGIAGSAEIGDFVALGGRVAVRDHVSIVSKVRLAANSCVTKNITEPGDYGGFPAQEETITYSVCQTQED", "values": [{"measurement": "protein production", "value": "failed"}]}, {"sequence": "GDAQAGLVLLHGRGASAQGMLQLADDLDVPDIAHLAPQARMRSWYPQSFMAPRDQNEPELASALATIGDVLGRLADAGIGPARTVLLGFSQGACLATTYAAQTPQRYGGVVGLSGGLIGPDGASFDYEGSLDATPVFLGCSDQDPYIPRARVAETADVLRALNADVTSRIYEGLGHTINDAERQHARSLLRRCVD", "values": [{"measurement": "protein production", "value": "failed"}]}, {"sequence": "MGFHDYIEETKNIFNRLYPDNKITDIDYEGPTIVVYTKDPELFAKRDDLVRQIAQEIRRRIAIRSDPSILLPEDQARESIEKIIPKEAGLEDIYFEPDTGEVIIELDEPSIVTARGTDYVQEIKSRTQWSPRIVRAPPMYSRTVKEVREFMREVKQERREFLHNLGVKLSGPPMVGETWVRLTALGGHSEVGRSATLVSTKNSKVLIDCGMMNVGPDADPWDAAPYLYVPEVQPLSTIDAVILTHAHLDHSGLLPLLFKYGYDGPVYMTPPTRDLAALLQNDYIKVARMEGGKVPYESKYIREELKHTITLRYGETTDITRDMRLTFYNAGHILGSASGHLHIGDGLYNVVLSGDVKFEKTWLFNPANNKFPRAETFMTESTYGGRDDYSFTREEATQTLIDVINRTHDRGGSVLIPVFAVGRSQEVMIVLEDAMRNGRIPQMDVYLDGMIMEAPAIHAAYPEYLNKELREAIMVKKENPFLSPIFKKVETRDRGRK", "values": [{"measurement": "protein production", "value": "failed"}]}, {"sequence": "MMAVESSKRLASETPVSLFIPYSHHITDTIISTKNAEYLSIWKIDGRSHQSASEEDIFQWARELNNTLRGIASANLSLWTHIVRRRVYEYPDSTFDKMFCYQLDEKYRQSFTGYNLMVNDLYLTVVFQPIADKVMSFFSQHERETLDQKKMRQESCIKALNDINRTLGQSFKRYGGELLGTYEKNGHAYSSALEFLAMLVNGEYSPMPICRDRFADYMSINRPFFSKWGALGELRTTSGIRRFGMMEIKEYDTTTKPGQFNVLLESDFEFVLTQSFSVLSRHAAKDYLQRHQRNLIDARDVATSQIEQIDEALNQLISGHFVMGEHHCTLTIYGDTVQQVRDYMAKANAALLEVAVLPKPVDLAIEAGYWAQLPANWKWRPRPAPITSLNFLSFSSFHNFMSGKPTGNPWGPAVTILKTISKTPLYFNFHASKLEEDATDKRLLGNTAIIGQSGSGKTVLLGFLLAQAQKFKPTTVVFDKDRGMEIAIRAMGGRYLTFKPGRQSGFNPFQLPPTQDNLTFLKQFVKKLAEASSEITHRDEEEINQAVMSIMSSNINPSLRRLSFLLQFLPNPHLNDYNSHPSVHTRLIKWCEGGDYGWLFDNPTDALDLSTHQIYGFDITEFLDNPETRTPVMMYLLYRTEGMISGQRFMYIFDEFWKPLQDPYFEDLAKNKQKTIRKQNGIFVFATQEPTDALESNIAKTLIQQCATYIFLANPKANYEDYTEGFKLTDAEFELIKGIGEFSRQFLIKQGDQSALAELNLGKFHVTIDGKTVEQNFSDELLVLSGTPDNAELVENIIAEVGDDPALWLPVFLQHIKTNRRTT", "values": [{"measurement": "protein production", "value": "failed"}]}, {"sequence": "MRKKKRLISLLLAVFIAVACLPAGIARADKASSIELKFDRNKGEVGDILIGTVRINNIKNFAGFQVNIVYDPKVLMAVDPETGKEFTSSTFPPGRTVLKNNAYGPIQIADNDPEKGILNFALAYSYIAGYKETGVAEESGIIAKIGFKILQKKSTAVKFQDTLSMPGAISGTQLFDWDGEVITGYEVIQPDVLSLGDEPYETPGTDIPISDNPAATPSSTPSVTPSPEVKPTQTPSPAENSAKVELEPVLDNATGEAKAAIDEEKLNKALDEAKKSEDDKLVELNIKKVENADAYIQQLPAKFLIKSDAEYKLRIATEQGIIEVPANMLNTADISKLVKNDSVVEFVIRKVKVDELGAELKEKIGNRPVIDISVVVDGKKVEWSNYKAKVKISIPYKPDAKELENHEHIVVLHIDDAGKAVSVPSGKYEPSLGVVTFETNHLSKYAVSYVYKTFADIGSYAWAKKQIEVLASKGVINGTSDTTFTPQADITRADFMILLVKALGLTAEVTSNFDDVSEKDYYYEYVGIAKELGITTGVGNNKFNPKAKITRQDMMVLTTNALRIAGKISSTGTRADVERFSDKDQIASYAVEGVATLVKEGIVVGSGDIINPRGNASRAELAAIIYKIYYK", "values": [{"measurement": "protein production", "value": "not failed"}]}, {"sequence": "MGSLERSKKKAQVWKKAVIHFSLCFVMGFFTGFAPAGKASFFSNFETTSYTSTKSPIPPQPFENATYTQHSLLNRTLINSQSQAPAPAESREAEGETRSLSEKEDENQVKVTPRGLVIVVTPIITKDRYKNVLLRRMANTLRLVPPPLLWIVVEKHSDGEEKSSSTMLRKTGIMYRRIVFKEDFTSLESELDHQRNLALRHIEHHKLSGIVHFAGLNNIYDLDFFVKIRDIEVFGTWPMALLSANRKRVVVEGPVCESSQVLGWHLRKINNETETKPPIHISSFAFNSSILWDPERWGRPSSVEGTKQDSIKYVKQVVLEDDTKLKGLPAQDCSKIMLWRLKFPTRTRLST", "values": [{"measurement": "protein production", "value": "failed"}]}, {"sequence": "MTAASFAQILLLLGTTALVVAVFQWLRVPSSLAYLVVGVLLGPHTGGPVIENPEIHGAAEFGIVFLMFTIGLNLSLPQVHALRHLVLGLGTGQVVLTTLVVGAAAFAFGLSPEAAFVVGAVFAQSSTAIIGKQLAEQGEEYSRHGRLAVAMSVFQDVTAVPLIVVVPVLAVPSLRVLGESLAWALAKAVLAFVLVFFAGRWLLRPLFHAVASRRSAELFTLTVLLVSLGAGGLTYQLGLSVAFGAFLVGMMLGETEFRHQVESTIRPFRDVLLGLFFVSIGMLFDPSLMEGTWQWALGGAFVLLAAKTVLVAVLVRATGIDLATAWRVGLLVAVGGEFGFALLAIALDAGVISQLTGQIVLMAVLLSMITAPFLIRYNRVLVEGWFRPPPGEEGALSAGPGVAGSPHDHVIICGYGRIGQNIGRFLEEERIPYVALDLDPQRVKEARIACEPVYYGDSSERDMLEAVGIGKARLVVVSHEDLAAAHKVLHHAAALRPGLPVMVRTRDESHVEELRRAGAAEVVPETLEAGLMIASQALLLLNVPLSRVARRIREQRLNRYLLLREFFRGDETFSDDVQSQDGDRLRAVPLPPGCRVAGCTLAELALENVVVTALVRHGVRELAPAPETRLAEGDAVVLFGAVSDLDKAERRLLG", "values": [{"measurement": "protein production", "value": "failed"}]}, {"sequence": "MNVTGKLRGLISFSTVLPLKSEASIEDIASLTLHWPLVGALIGVAVGSAGVAASLVFPGAVVACVAYGFAIWFTGFHHLDGLIDMGDALMSHGSFERKIEIMRDPRIGTGGLGLLLIVSSTTIAAIYSLPQGVLFQGLLIGEVSAKVCLTGCARVSRPLDGGTGRHFIMASRSPFTGMVWIFWAVAAYLLAGVPGAVSVAVAVLSGVFIGLVARRNFYWSTGDVLGASNEVGRMMSLLGLLAAIRLTGL", "values": [{"measurement": "protein production", "value": "failed"}]}, {"sequence": "MEKIIVVKYRDVKLKSPILIGGLPGIGNVGKIAADYIVEKLNMVKIYDIFSEYLPPQVFINDDSEIHLVRNSIYYKKMRGKHDLLVLGGDFQGTTQEAQYELSYKMLELAKDMNVSEVYTLGGYSVGKIVERPRVLGAVTDKKLIPELEKNGVIFPKGEPGGGIVGSAGLILGLGMEIFKINGACLMGETSGYFADPKSAMEVLNVLQKQIGIKIDMSDIETRSKQIEQITGKMQEEFQNKQGKEDLGYFG", "values": [{"measurement": "protein production", "value": "failed"}]}, {"sequence": "MSSRAKRLTHLASLPSMSRALLKKILHFDETLTVIFKQSHVQLSETYGLSTKKARHLYEHLRRVSTDFWSEYYEKKQIVPVTIFDKGYPNLLKEIYDPPFVLFCRGRMNTLYSEKRLAIVGTRKTSTTGLKSLELLIPPLLQDGWVIVSGFAAGVDIHAHQLTVKNGGQTIAVLAHGHDNLYPAAHRPFAEHEMVSQLMISEYPPYVKPRPWQFPERNRIISGLCAGTVVIEAKEKSGSLITADQALEQGRDVFAVPGAITNQKAAGTNQLIQQGAKLIQRADDIIEELCGFQQSCDSDKFF", "values": [{"measurement": "protein production", "value": "failed"}]}]}
